The values that follow come from a protein production outcome set (Wang et al. 2014).

This data set can be described thus: label from the status in PepcDB records.
For the sequence “MELSRGASAPDPDDVRPLKPCLLRRNHSRDQHGVAASSLEELRSKACELLAIDKSLTPITLVLAEDGTIVDDDDYFLCLPSNTKFVALACNEKWTYNDSDGGTAWVSQESFEADEPDSRAGVKWKNVARQLKEDLSSIILLSEEDLQALIDIPCAELAQELCQSCATVQGLQSTLQQVLDQREEARQSKQLLELYLQALEKEGNILSNQKESKAALSEELDAVDTGVGREMASEVLLRSQILTTLKEKPAPELSLSSQDLESVSKEDPKALAVALSWDIRKAETVQQACTTELALRLQQVQSLHSLRNLSARRSPLPGEPQRPKRAKRDSS”, the protein production result was “not failed”.
With “MGSSHHHHHHSSGRENLYFQGHMAATAREDGASGQERGQRGCEHYDRGCLLKAPCCDKLYTCRLCHDNNEDHQLDRFKVKEVQCINCEKIQHAQQTCEECSTLFGEYYCDICHLFDKDKKQYHCENCGICRIGPKEDFFHCLKCNLCLAMNLQGRHKCI”, the protein production result is listed as “not failed”.
Then “MVSEMLSEAGHSVSYLKGGMKAWSEHLEPVKVGDLKDGGEMYQFVRIGKGCLSYMVISNGEAAIIDATRMVNFFIDFAKGKGATITHVFDTHLHADHISGGRVIAEKTKATYWLPPKDAEEVEFDYQPLEEGNDIIIGNTTIKIQPIYSPGHTIGSTSFIVDDQYLLSGDILFIDSIGRPDLAGMAEDWVGDLRKTLYSRYKALSKDLIVLPAHFMIIDELNENGSVGKQLSTLFSENHGLNIADETEFRHLVTDHLPPQPNAYQEIRETNMGKISPDEEKQREMEIGPNRCAIRLEHHHHHH”, with “failed”; and “MFKIDLFSNKKAVEGFILFQLTIVMISILISYKMAYSMTHIIEQNIIFNIIFGIVGFAVVYFLHEFIHNIMFRVMSKGNKPTYRIKSGLITTHMPNVYFKKWQYMTIMLAPLVIITSVLLVIFSYFAYSSIIFIACFHIGYCVMDMYFLTGLLNKHVQLIEDTEEGIKFYTQAPAPAQEFRTELKS”, with “failed”.
Then “MSAPLPLCVIGAGCVGMRHVEVARRSPQIRLTAVVEPVETRRRALAESGLVAVATLEEVPRETRAAIVATPTPDHLATGLAALSRGWAVLVEKPTAGTMDDARVLLGAADRAGLPLYVGHHRRCHPFSRAAREALGGIGDLVGLQGLWSLRKHDSYYAEDWRRQAGAGPLMTNLSHEIDLLRFLVGDMVEVSALTSSARRGLVVPDTAALAFRFADGALGSFLISDAGASPWSFEAACAENPAIAVSGQDYIRITGTAGALEFPSLTRWGRSAPGEIEWSKPLARAAGAGFARVDPLLEQINRFAAVLEGAQDDVLCTGTDGNAALEMTLAAALSGKLGRPVRAHEVPGDYSGI”, with “failed”.
Then “MALMTNKTRALLIGGHGKVALLATPMLIDASVQVTSMYRNPDHRSEIEALGATTLERDVTTLSVEDWADLLKDFDVVVWSAGNGGKNGADATYAIDRDAAIASIDGAASLGEKAPRYIMVSYIGSSTHTIDPSASFYPYAESKKAADEHLSSTNLDYLILAPAALTLDEVNGVEVIADTNEAAAGRTTSRVLVAEVITEFVVRDFPQTRVLPFVDGESPVSSIS”, with “failed”; and “MHRLRAAETGDIEAMTDLLLRHGPNPWNHLPEEGVRAHLRAIADGEVRAVLAERDDRLLGFASFRRTEDFAHYQPQRADAPRAYICEAVVHPAAAGQGLGSALLEAVLAQLADEGIEDVYIDRHEENLASAGMMRKAGFVELETYADPARRPNGSGRSTVCHRNLSLQRRAVR”, with “failed”; and “MAKSLTFSTFSPNNTLKKNVIPIVLLHGWGLNSGVWQPLLELFHRNDESIYQLITIDLPGFGINSAVDIKPYSLANICHHIEQVIDQPAIYLGWSLGGLIATEMSLKYPEKVLASITVASSPYFVEQPTDNWPGIKENVLESFHKQLAQDTAKTISGFLKIQAMGSPHIRQDLKLITQLVMAHTLPSQQTLADSLALLSNSDLRLHLSKIKQPLLRLYGHNDSLVPKEVMEKISYLAPNSDQHLFADASHAPFISHLDDFYQVLVVWLDSHFNLEHHHHHH”, with “failed”.
With “MARRYAIYDVFTERRLAGNPLAVVFEAEGLAEEAMQAIAQEFNLSETVFILRPGNAAHSARLRIFTPAHELPFAGHPTVGAAVAIAEAAYGEANSALELMQVLEESVGPVRAAVRLKPGAATFAEFDLPRKPIRLHAQLDRQEIADALALKTTQVGFENHVPSFWSAGVPFVMIPLRDVGAAASVEFDPQRWEHLAPLAEGRLAAAYLYCRGGINHTARFHARMFAPGMGLAEDPATGSAVAALSGAINFFDGLVDGHHPMLIEQGVEMGRPSFIHLHLDIAEGKIAGARIGGHAVKVAEGELAV”, the protein production entry is “failed”.
Then “SGGGGKAWPTHVVCSDSGLEVLYQSCDPLQDFGFSVEKCSKQLKSNINIRFGIILREDIKELFLDLALMSQGSSVLNFSYPICEAALPKFSFCGRRKGEQIYYAGPVNNPEFTIPQGEYQVLLELYTEKRSTVACANATIMCS”, with “failed”.
Then “HSHSDKHPVTWQPSKDGDRLIGRILLNKRLKDGSVPRDSGAMLGLKVVGGKMTESGRLCAFITKVKKGSLADTVGHLRPGDEVLEWNGRLLQGATFEEVYNIILESKPEPQVELVVSR”, with “not failed”.
The result for “MSAATKQQCCARAEVPVRNLHSCDVFGLPAGGAFGRPRRDKENDMSLGTIILIILIIALLGGFTGVGGGPFYGTGYYGGGGLGLVIVILLILLLLGKI” reads “failed”; that for “MVKHQQTPAYIAAILYSFIIGLSFLFVKIALQTAEPFDILAHRFTIAFAAATVPILFGWVKLSILVKDVIDILPLALLYPALFFSFQAFGLVYSSSSEAGIIQAAIPIFTMVFAAYVLKERPTWTQKGFTVLSVAGVMFIFVMKGVDVESASLKGSLLILLSALSSAMYNTAARKMTQRFKLTELTYIMSAIGFVVFNAIALVRHGAAGTVGTYFLPFREPGFVLAIVYLGVLSSLVTSFLSNYTLSRIEAFKMSAFNHVSTIVTMIAGFVILNESLAWYHLAGAVCIMIGVVGSNINLEKKTKRPGMPAKK”, “failed”.
For the sequence “MSLSGPRVERLEVSAYTVPTDYPESDGTLQWDSTTMILVEAHGGGRKGLGYTYGDVSVGRFVESKLAGVAEGSDALSPPAVWARMQAAIRNAGRPGVGAMAVSAVDIALWDLKARLLGLPLADALPRFHAEVPVYGSGGFTSYPLRRLQEQLGGWAAAGIPRVKMKVGREPEKDPERVRAAREAIGESVELMVDANGAYTRKQALYWAGAFAREAGISYLEEPVSSEDREGLRLLRDRGPGGVAIAAGEYEWTLPQLHDLAGCVDILQADVTRCGGITGLLRVDGICRGHQIPFSAHCAPAVSAHACCAVESLLHLEYFHDHARVERLLFDGTLDPEGGSLRPDPDRPGLGLELKRSEAGKYAAEGHHHHHH”, the protein production result was “not failed”.
Then “MASIQKLGNGWRYRVSYKDAGKYKTKTKGGFRTKKECELAAAELEKKLHVGMDISAGDRLFAEYMRTWFELYQNGKHSPEHDRNIERSVKLVEEHFPGVKMKELTREMYQKFINEISPKYATDTVKKRHTYIKACLQEAIQEGIIFKDPTYKVIIKGKKDTKNEELKYLNFNEVQKLVAETKKDLRPRYISRYVILFAIATGARFSEIMGITWDCVDFKNRTITINKTWDFKDTNDFSDTKNYASKRTITIDTETVDMLQTLKSEQNKKALQTGLRNKKNLVFVNTKMQLVSNNAVNKTLRTLCKAAKIKEITCHGLRHTHASMLLYKGVNIKYISRRLGHKDIVTTLQTYSHILDEMEQVESRVVDDTMKEIHGAKFVQKNF”, with “failed”.
The result for “MSKQLLALNIDGALLRSNGKIHQATKDAIEYVKKKGIYVTLVTNRHFRSAQKIAKSLKLDAKLITHSGAYIAEKIDAPFFEKRISDDHTFNIVQVLESYQCNIRLLHEKYSIGNKKKVNSNLLGKALIHPSDPIFYPVQFVESLSDLLMDEPVSAPVIEVYTEHDIQHDITETITKAFPAVDVIRVNDEKLNIVPKGVSKEAGLALVASELGLSMDDVVAIGHQYDDLPMIELAGLGVAMGNAVPEIKRKADWVTRSNDEQGVAYMMKEYFRMQQRKGFLDKFHMKR” reads “not failed”; that for “MMEQKIMEVLRRMQAILDEACLRDLKTVLQVVFEGCEISQEKRELRVPDRSWAIDLEEYLMSKALEGKSPGTVDRYRYELQRLLSYVNKAVRDITEGDISGYMRAYKAIRQVSNQTLKNVRAVYSSFFAWLRDRDRIRRNPMALVEAIKVEQKIRKPYTDEEREMLLRNCSTLRDKAMMEFFYSTAVRVSELVTLNRDDIRFTSKDLIVFGKGSKERRVYLNDRTNLYMKEYLDSRTDGSPALIVSIRRPHSRLSKTGIEDIIRRTGQRAGVEKAHPHRFRRTSLTNALNRGMPLQEAMVMAGHAKPETTMGYCTVDQEGVKYHHQKYLSA”, “failed”; that for “MKDCCGGYESEELLMDFSGKDKAAYVQDTFNSIAKRYDVMNTLMSFGLDKGWRKKAVQTVEAKPGMTMVDICCGTAQLSLELAMTVGEQGQITGLDFSENMLKKAQENLAGSPYRSIIELRQGDAMNLPFADNSFDGATVGWGLRNLPDLEKGVQEMIRVVKPGGMVVSLDMAKPTMPGFKQGYWLYFNKLVPLMGKIWAGKAKAYQYLHDSAVEFPSQQELANIFARCGLTETRYQNLAGGVVAIVSGRKPR”, “failed”.
Regarding “MAADPASAPVLLHPRRAMVLAAGLGLRMRPLTETMPKPLVAIHDKPLIDWALDHLATAGVEEAVVNLHHLPEMLEAHLQGRATPRIHFSDETGQRLETGGGVRKALPHLGDDPFYVLNSDVLWLNGTIPALDRLAAAWDPETMDALLLLHPLAAAHGYEGLGDFDLDPLGRPTRRAEMHMAPFIFTGVQILHPRLFDDAPEGPFSLNVLYDRALSEDRLAAIVHDGEWYHVGTPQALVHTETILGQHSSMSDQLEHHHHHH”, the protein production result was “failed”.
“MRFVNPIPFVRDINRSKSFYRDRLGLKILEDFGSFVLFETGFAIHEGRSLEETIWRTSSDAQEAYGRRNMLLYFEHADVDAAFQDIAPHVELIHPLERQAWGQRVFRFYDPDGHAIEVGESLSQSGE”: the protein production entry is reported as “not failed”.
Then “MVLLSIDFASLHTILESLYNEMMPLCEDMLGVAKGVAGLGALFYVALRVWQSMARAEPVDVYPLLRPFALGICILLFPTLVLGTMNSILSPIVQGTHRMLEGQTLDMQQYRAQKDRLEREAMMRNPETAYLVSDEEFDRQLDELGWSPGDAATRLGMYMEVGMYNLEKSIRDAFRSLLELLFAAASLLIDTVRTFFLVVLSVLGPIAFSISVWDGLQSTLGQWFTRYISVYLWLPVSDLFSCMLAKIQVLMLQNDIAELQGNPDYSLDNSNCVYIIFMLIGIVGYFTVPTVSGWIVQAGGGGNYSRNLNRTATKAGGFTAGAGGAALGNIGGRIRGK”, with “failed”; and “SYTFDTTDHKSPCCNFQWYIFRKQGESRIITCELFGVIVSLENRWDWLEFMIDDSLQLTAFRCPKRDKLGMETLLQLGDVAQVTGNWKLSNGAFLNATKIAIHNNPDVECKYWLQQIQKYKSKVCELEIPSDWIRRQQRAHNLKTDAVLSFSAQVSTAAATCWKLWKKHFNQGGKISLQRLWEVIQRENCPKMQELSSCRRNQIVQLLIHLGYLIPLSKEPETYVLLIDDILDKQVMQIFNQNIASKTLSLREVAYRLEEYFHVEEISLERVEESILRLAYKEKVEQV”, with “not failed”.
The result for “MVKVYAPASSANMSVGFDVLGAAVTPVDGTLLGDVVSVEAADHFRLHNLGRFADKLPPEPRENIVYQCWERFCQALGKTIPVAMTLEKNMPIGSGLGSSACSVVAALVAMNEHCGKPLNDTRLLALMGELEGRISGSIHYDNVAPCFLGGMQLMIEENGIISQ” reads “failed”.
